Literature values, collected in article PMC8801382.

What was measured:
[1] = molecular target: beta-globin (Homo sapiens) (UniProt P68871)
[2] = molecular target: alpha-globin (Homo sapiens) (UniProt P69905)

Sequence of UniProt P68871 (P68871 2-147): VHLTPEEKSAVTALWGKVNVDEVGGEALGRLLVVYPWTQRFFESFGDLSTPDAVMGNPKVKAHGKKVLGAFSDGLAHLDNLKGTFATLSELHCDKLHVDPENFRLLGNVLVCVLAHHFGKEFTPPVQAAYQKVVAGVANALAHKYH

| Kd [1] | Kd [2] | Substance |
| --- | --- | --- |
| 0.001 nM |  | alpha-globin (from UniProt P69905) |
|  | 17 nM | AHSP (from UniProt Q9NZD4) |
